According to patent US20180291103A1:

Assays:
[1] = target: PDL1-Fc fusion protein (human PDL1-Fc) (human); test: SPR, BIAcore X100; PDL1-Fc on CM5 chip, antibody as analyte, 25 C
[2] = target: PDL1-Fc fusion protein (human PDL1-Fc) (human); test: ELISA; OD on PDL1-Fc divided by OD on Fc protein, control group well (row 'blank')
Fc protein = test: ELISA; Fc protein coated, control group well (row 'blank'), anti-His detection, 405 nm
[3] = target: PDL1-Fc fusion protein (human PDL1-Fc) (human); test: ELISA; PDL1-Fc coated, control group well (row 'blank'), anti-His detection, 405 nm
[4] = target: Mouse PDL1-Fc protein (mouse); test: ELISA; mouse PDL1-Fc coated at 0.5 µg/well, control group well (row 'blank'), anti-His detection, 405 nm
Sequence of Mouse PDL1-Fc protein (mouse) (chain, as listed by the source limits assumed): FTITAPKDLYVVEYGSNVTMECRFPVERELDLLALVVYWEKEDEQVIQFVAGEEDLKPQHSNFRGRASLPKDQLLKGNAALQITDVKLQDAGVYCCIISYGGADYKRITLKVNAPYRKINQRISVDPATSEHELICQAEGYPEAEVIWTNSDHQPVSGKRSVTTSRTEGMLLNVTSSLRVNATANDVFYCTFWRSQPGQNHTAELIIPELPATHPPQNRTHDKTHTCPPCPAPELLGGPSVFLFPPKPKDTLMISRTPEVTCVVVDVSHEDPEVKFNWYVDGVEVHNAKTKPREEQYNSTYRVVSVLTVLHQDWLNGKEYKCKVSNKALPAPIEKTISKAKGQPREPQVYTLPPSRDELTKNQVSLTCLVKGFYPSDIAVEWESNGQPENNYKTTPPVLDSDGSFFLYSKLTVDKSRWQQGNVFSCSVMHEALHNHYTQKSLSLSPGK

Sequence of PDL1-Fc fusion protein (human PDL1-Fc) (human) (chain, as listed by the source limits assumed): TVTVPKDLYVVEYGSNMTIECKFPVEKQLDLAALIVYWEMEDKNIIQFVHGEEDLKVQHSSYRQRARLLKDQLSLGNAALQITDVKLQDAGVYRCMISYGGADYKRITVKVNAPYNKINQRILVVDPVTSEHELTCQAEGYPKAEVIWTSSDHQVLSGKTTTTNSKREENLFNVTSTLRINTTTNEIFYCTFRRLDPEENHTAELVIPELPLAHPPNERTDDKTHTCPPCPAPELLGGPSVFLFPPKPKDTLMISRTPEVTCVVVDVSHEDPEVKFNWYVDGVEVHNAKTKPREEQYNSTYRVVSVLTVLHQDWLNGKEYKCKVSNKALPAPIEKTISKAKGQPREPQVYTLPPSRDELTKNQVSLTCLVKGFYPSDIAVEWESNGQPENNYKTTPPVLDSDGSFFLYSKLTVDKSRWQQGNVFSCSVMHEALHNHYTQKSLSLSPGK

| Substance | Kd [1] [pM] | OD (PDL1/Fc) [2] | OD (against Fc) (Fc protein) [OD] | OD (against PDL1) [3] [OD] | OD (against mouse PDL1) [4] [OD] |
| --- | --- | --- | --- | --- | --- |
| 243.55 (anti-PDL1 antibody of Roche) | 135 |  |  |  |  |
| control single domain antibody against other unrelated target (control group of the ELISA; table row 'blank') (VHH) |  | 0.75 | 0.072 | 0.054 | 0.096 |
